B1: motif-30 Hox1 mutant (dsDNA)
DNA 1: GAAACAGGAGAACCATAACTAATCC
DNA 2: GGATTAGTTATGGTTCTCCTGTTTC
B2: motif-30 WT (dsDNA)
DNA 1: GAAACAGGATAACCATAACTAATCC
DNA 2: GGATTAGTTATGGTTATCCTGTTTC
B3: motif-30 Hox2 mutant (dsDNA)
DNA 1: GAAACAGGATAACCAGGACTAATCC
DNA 2: GGATTAGTCCTGGTTATCCTGTTTC
B4: motif-30 Grh2 mutant (dsDNA)
DNA 1: GAAACAGGATAACGATAACTAATCC
DNA 2: GGATTAGTTATCGTTATCCTGTTTC
B5: motif-33 (dsDNA)
DNA 1: TACTGCCTGATTAGTGTAAATAATTGCCAGTCCTTG
DNA 2: CAAGGACTGGCAATTATTTACACTAATCAGGCAGTA
B6: motif-32 (dsDNA)
DNA 1: TTGCATGTGCGGATATATATATGTGGAACCACCTTG
DNA 2: CAAGGTGGTTCCACATATATATATCCGCACATGCAA
B7: motif-30 Hox1+2 mutant (dsDNA)
DNA 1: GAAACAGGAGAACCAGGACTAATCC
DNA 2: GGATTAGTCCTGGTTCTCCTGTTTC
B8: motif-31 (dsDNA)
DNA 1: ACACAATTTTCTAAGATCCACTGGAATCGGTATGCCGATAGTT
DNA 2: AACTATCGGCATACCGATTCCAGTGGATCTTAGAAAATTGTGT
B9: motif-23 (dsDNA)
DNA 1: CTATTATCACTATTGCTTTGCTTCCTCAAAACCTTCATTCGA
DNA 2: TCGAATGAAGGTTTTGAGGAAGCAAAGCAATAGTGATAATAG
B10: motif-29 (Hox-Exd consensus) (dsDNA)
DNA 1: CTCAAGCGCGTGATGAATGTAATCTTCG
DNA 2: CGAAGATTACATTCATCACGCGCTTGAG
B11: motif-30 Exd mutant (dsDNA)
DNA 1: GAAACAGGATAACCATAACTGCTCC
DNA 2: GGAGCAGTTATGGTTATCCTGTTTC
B12: motif-28 (dsDNA)
DNA 1: AAGCCGAGCCTGAATCAGGTACTCAAATTGTCGC
DNA 2: GCGACAATTTGAGTACCTGATTCAGGCTCGGCTT
B13: motif-25 (dsDNA)
DNA 1: CGGGATATCACCAAACCATAGAAAATTTGCGGTACA
DNA 2: TGTACCGCAAATTTTCTATGGTTTGGTGATATCCCG
B14: motif-27 (dsDNA)
DNA 1: TATATGTGGAACCACCTTGAAAGTCTACTGCCTGATTAGT
DNA 2: ACTAATCAGGCAGTAGACTTTCAAGGTGGTTCCACATATA

The binders below were run against T1, AbdA (Hox);Exd/Hth-HM (Drosophila melanogaster?;Drosophila …, UniProt P29555;P40427;O46339 261-590;1-376;127-211, |) (assay: EMSA; intact in text; slightly reduced per legend; EMSA, 20 ul, 30 min, room temperature; 5X buffer as printed: 20% glycerol, 1 mg/ml BSA, 2.5 mM EDTA, '50mM 1M tris' pH 7.5, 50 mM KCl, 5 mM MgCl2, 2.5 mM DTT, 90 ug/ml poly(dI-dC); proteins 100-200 ng). Conditions: protein: recombinant;recombinant; tags: 6xHis;6xHis; copies: 1;1;1.
Target sequence in this assay (P29555 261-590, one chain of several): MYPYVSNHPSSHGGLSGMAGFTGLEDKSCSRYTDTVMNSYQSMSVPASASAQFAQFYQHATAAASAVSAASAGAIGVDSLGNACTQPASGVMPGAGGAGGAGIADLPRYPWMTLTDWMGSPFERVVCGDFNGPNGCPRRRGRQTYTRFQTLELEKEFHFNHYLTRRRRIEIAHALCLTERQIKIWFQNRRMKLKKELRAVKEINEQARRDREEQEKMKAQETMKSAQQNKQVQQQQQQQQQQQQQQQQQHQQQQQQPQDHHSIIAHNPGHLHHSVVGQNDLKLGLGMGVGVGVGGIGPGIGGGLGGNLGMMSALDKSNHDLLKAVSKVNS

Binder	binding result
B1	binds

The binders below were run against T2, AbdA (Hox) (UniProt P29555 261-590) (assay: EMSA; 100 and 200 ng; EMSA, 20 ul, 30 min, room temperature; 5X buffer as printed: 20% glycerol, 1 mg/ml BSA, 2.5 mM EDTA, '50mM 1M tris' pH 7.5, 50 mM KCl, 5 mM MgCl2, 2.5 mM DTT, 90 ug/ml poly(dI-dC); proteins 100-200 ng). Conditions: protein: recombinant; tags: 6xHis.
T2 sequence (P29555 261-590): as the sequence (P29555 261-590, one chain of several) above

Binder	binding result
B2	binds

The binders below were run against T3, Exd/Hth-HM (UniProt P40427;O46339 1-376;127-211) (assay: EMSA; 200 ng; another sentence claims strong binding of each protein; EMSA, 20 ul, 30 min, room temperature; 5X buffer as printed: 20% glycerol, 1 mg/ml BSA, 2.5 mM EDTA, '50mM 1M tris' pH 7.5, 50 mM KCl, 5 mM MgCl2, 2.5 mM DTT, 90 ug/ml poly(dI-dC); proteins 100-200 ng). Conditions: protein: recombinant; tags: 6xHis; copies: 1;1.
T3 sequence 1: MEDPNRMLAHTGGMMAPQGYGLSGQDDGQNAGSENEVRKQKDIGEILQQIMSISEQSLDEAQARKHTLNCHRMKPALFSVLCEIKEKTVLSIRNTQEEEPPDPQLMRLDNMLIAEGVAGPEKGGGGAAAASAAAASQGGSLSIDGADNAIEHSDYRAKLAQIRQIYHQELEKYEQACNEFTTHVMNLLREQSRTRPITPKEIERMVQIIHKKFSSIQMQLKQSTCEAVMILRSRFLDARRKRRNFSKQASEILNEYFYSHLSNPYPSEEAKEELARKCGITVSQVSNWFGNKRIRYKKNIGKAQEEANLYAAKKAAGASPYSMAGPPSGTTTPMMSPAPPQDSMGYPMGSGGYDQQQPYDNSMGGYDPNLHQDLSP
T3 sequence 2: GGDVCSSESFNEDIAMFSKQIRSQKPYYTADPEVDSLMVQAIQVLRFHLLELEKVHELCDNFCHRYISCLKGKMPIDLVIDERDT

Binder	binding result
B2	no binding

What follows are binders tested against T4, AbdA (Hox);Exd/Hth-HM;Grh (Drosophila melanogaster?;Drosophila …, UniProt P29555;P40427;O46339;P13002 261-590;1-376;127-211;551-1333, ||) (assay: EMSA; completely abolished in text; largely per legend; EMSA, 20 ul, 30 min, room temperature; 5X buffer as printed: 20% glycerol, 1 mg/ml BSA, 2.5 mM EDTA, '50mM 1M tris' pH 7.5, 50 mM KCl, 5 mM MgCl2, 2.5 mM DTT, 90 ug/ml poly(dI-dC); proteins 100-200 ng). Conditions: protein: recombinant;recombinant;recombinant; tags: 6xHis;6xHis;6xHis; copies: 1;1;1;2.
Target sequence in this assay (P29555 261-590, chain 1 of 2): as the sequence (P29555 261-590, one chain of several) above
Target sequence in this assay (P13002 551-1333, chain 4 of 2): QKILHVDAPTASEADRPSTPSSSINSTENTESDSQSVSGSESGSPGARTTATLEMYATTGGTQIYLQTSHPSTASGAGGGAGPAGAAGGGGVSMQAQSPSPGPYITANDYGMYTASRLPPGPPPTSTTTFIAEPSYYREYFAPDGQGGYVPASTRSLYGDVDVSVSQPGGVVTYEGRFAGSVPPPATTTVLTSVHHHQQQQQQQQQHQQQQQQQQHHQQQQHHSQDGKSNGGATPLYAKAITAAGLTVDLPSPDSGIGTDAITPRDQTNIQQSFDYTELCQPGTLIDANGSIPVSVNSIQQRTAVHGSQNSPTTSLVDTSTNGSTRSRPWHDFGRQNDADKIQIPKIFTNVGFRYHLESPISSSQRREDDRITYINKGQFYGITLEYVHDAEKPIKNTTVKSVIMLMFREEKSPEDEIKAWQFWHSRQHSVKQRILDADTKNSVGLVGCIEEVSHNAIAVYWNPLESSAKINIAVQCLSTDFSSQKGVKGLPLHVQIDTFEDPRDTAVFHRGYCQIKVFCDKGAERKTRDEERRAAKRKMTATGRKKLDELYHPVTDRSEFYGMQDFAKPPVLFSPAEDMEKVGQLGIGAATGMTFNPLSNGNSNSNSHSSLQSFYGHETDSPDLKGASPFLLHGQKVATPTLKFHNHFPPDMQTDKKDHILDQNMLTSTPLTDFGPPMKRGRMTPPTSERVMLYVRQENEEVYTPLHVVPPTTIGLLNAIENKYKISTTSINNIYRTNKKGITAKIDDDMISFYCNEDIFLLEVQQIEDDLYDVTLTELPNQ

Binder	binding result
B3	no binding

These binders were tested against T4, AbdA (Hox);Exd/Hth-HM;Grh (assay: EMSA; intact; slightly reduced intensity per legend; EMSA, 20 ul, 30 min, room temperature; 5X buffer as printed: 20% glycerol, 1 mg/ml BSA, 2.5 mM EDTA, '50mM 1M tris' pH 7.5, 50 mM KCl, 5 mM MgCl2, 2.5 mM DTT, 90 ug/ml poly(dI-dC); proteins 100-200 ng). Conditions: protein: recombinant;recombinant;recombinant; tags: 6xHis;6xHis;6xHis; copies: 1;1;1;2.
Target sequence in this assay (P29555 261-590, chain 1 of 2): as the sequence (P29555 261-590, one chain of several) above
Target sequence in this assay (P13002 551-1333, chain 4 of 2): as the sequence (P13002 551-1333, chain 4 of 2) above

Binder	binding result
B4	binds

The binders below were run against T3, Exd/Hth-HM (assay: EMSA; EMSA, 20 ul, 30 min, room temperature; 5X buffer as printed: 20% glycerol, 1 mg/ml BSA, 2.5 mM EDTA, '50mM 1M tris' pH 7.5, 50 mM KCl, 5 mM MgCl2, 2.5 mM DTT, 90 ug/ml poly(dI-dC); proteins 100-200 ng). Conditions: protein: recombinant; tags: 6xHis; copies: 1;1.

Binder	binding result
B5	binds
B6	binds

Each binder was assayed against T2, AbdA (Hox) in the same assay as above. Conditions: protein: recombinant; tags: 6xHis.

Binder	binding result
B7	no binding
B8	binds
B3	no binding
B5	binds

These binders were tested against T1, AbdA (Hox);Exd/Hth-HM in the same assay as above. Conditions: protein: recombinant;recombinant; tags: 6xHis;6xHis; copies: 1;1;1.

Binder	binding result
B9	binds
B10	binds
B2	binds
B7	no binding
B8	binds
B11	no binding
B12	binds
B13	binds
B14	binds
B3	no binding
B5	binds
B6	binds

What follows are binders tested against T4, AbdA (Hox);Exd/Hth-HM;Grh in the same assay as above. Conditions: protein: recombinant;recombinant;recombinant; tags: 6xHis;6xHis;6xHis; copies: 1;1;1;2.
Target sequence in this assay (P29555 261-590, chain 1 of 4, one chain of several): as the sequence (P29555 261-590, one chain of several) above
Target sequence in this assay (P13002 551-1333, chain 4 of 4, one chain of several): as the sequence (P13002 551-1333, chain 4 of 2) above

Binder	binding result
B2	binds
B7	no binding
B8	no binding
B11	no binding
B12	no binding
B13	no binding
B14	binds
B5	no binding
B6	binds

What follows are binders tested against AbdA (Hox);Grh (Drosophila melanogaster?;Drosophila …, UniProt P29555;P13002 261-590;551-1333, |) in the same assay as above. Conditions: protein: recombinant;recombinant; tags: 6xHis;6xHis; copies: 1;2.
Chain of AbdA (Hox);Grh (P29555 261-590, chain 1 of 2): as the sequence (P29555 261-590, one chain of several) above
Chain of AbdA (Hox);Grh (P13002 551-1333, chain 2 of 2): as the sequence (P13002 551-1333, chain 4 of 2) above

Binder	binding result
B2	binds
B7	no binding
B11	binds
B12	binds
B3	no binding
B5	binds

What follows are binders tested against T5, Grh (UniProt P13002 551-1333) in the same assay as above. Conditions: protein: recombinant; tags: 6xHis; chain copies: 2.
T5 sequence (P13002 551-1333): as the sequence (P13002 551-1333, chain 4 of 2) above

Binder	binding result
B9	binds
B10	no binding
B2	binds
B8	binds
B11	binds
B12	binds
B13	binds
B14	binds
B3	binds
B5	binds
B6	binds

The binders below were run against T5, Grh (assay: EMSA; no significant decrease; EMSA, 20 ul, 30 min, room temperature; 5X buffer as printed: 20% glycerol, 1 mg/ml BSA, 2.5 mM EDTA, '50mM 1M tris' pH 7.5, 50 mM KCl, 5 mM MgCl2, 2.5 mM DTT, 90 ug/ml poly(dI-dC); proteins 100-200 ng). Conditions: protein: recombinant; tags: 6xHis; chain copies: 2.

Binder	binding result
B4	binds

Reference: PMC5667929, “Combinatorial action of Grainyhead, Extradenticle and Notch in regulating Hox mediated apoptosis in Drosophila larval CNS”
